Test results reported in patent US20210238298A1 (ALLIGATOR BIOSCIENCE, published 2021).
Numbering of substitutions follows the chain as printed.

T1: Human OX40 (R&D systems, #3358_OX) (human, UniProt P43489 29-216)
T1 construct: Bought; Several catalogue numbers are given for it; also called human OX40 (R&D Systems, 3388-OX); OX40-Fc (R&D systems, #3358_OX); not shown: Fc part
T1 sequence: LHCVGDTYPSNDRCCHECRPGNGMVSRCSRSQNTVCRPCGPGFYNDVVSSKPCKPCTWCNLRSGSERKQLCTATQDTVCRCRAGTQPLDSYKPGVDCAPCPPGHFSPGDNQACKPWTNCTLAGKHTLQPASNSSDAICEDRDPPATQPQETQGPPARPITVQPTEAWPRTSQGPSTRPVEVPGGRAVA

B1: CD86 mutant 1040 (ligand)
chain: APLKIQAYFNETADLPCQFANSQNLSLSELVVFWQDQENLVLNEVYLGKERFDSVDSKYMGRTSFDSDSWTLRLHNLQIKDKGRYQCIIHHKKPTGMINIHQMNSELSVLA
notes: Variant of the CD86 extracellular domain
B2: anti-CD137 antibody 1204/1205 (antibody, IgG1, V domains shown)
VH: EVQLLESGGGLVQPGGSLRLSCAASGFTFSSYYMGWVRQAPGKGLEWVSGIGSYYGYTGYADSVKGRFTISRDNSKNTLYLQMNSLRAEDTAVYYCARAYYDYNYYYAYFDYWGQGTLVTVSS
VL: DIQMTQSPSSLSASVGDRVTITCRASQSISSYLNWYQQKPGKAPKLLIYAASSLQSGVPSRFSGSGSGTDFTLTISSLQPEDFATYYCQQSVPHYPFTFGQGTKLEIK
notes: Produced as IgG; also called 1204-bio
B3: anti-CD137 antibody 1626/1627 (antibody, IgG1, V domains shown)
VH: EVQLLESGGGLVQPGGSLRLSCAASGFTFGGYSMYWVRQAPGKGLEWVSSIGGYYYSTYYADSVKGRFTISRDNSKNTLYLQMNSLRAEDTAVYYCARSYYGSIDYWGQGTLVTVSS
VL: B2 VL with S91G, V92T, P93G, H94Y, Y95G, F97L
notes: Produced as IgG; also called 1626-bio
B4: bispecific molecule 1170/1263 (OX40 x CTLA-4) (bispecific antibody, human IgG1, kappa)
heavy: not shown
light: DIQMTQSPSSLSASVGDRVTITCRASQSISSYLNWYQQKPGKAPKLLIYAASSLQSGVPSRFSGSGSGTDFTLTISSLQPEDFATYYCQQGHGSYPHTFGQGTKLEIKRTVAAPSVFIFPPSDEQLKSGTASVVCLLNNFYPREAKVQWKVDNALQSGNSQESVTEQDSKDSTYSLSSTLTLSKADYEKHKVYACEVTHQGLSSPVTKSFNRGECSGGGGSGGGGSAPLKIQAYFNETADLPCQFANSQNLSLSELVVFWQDQENLVLNEVYLGKERFDSVDSKYMGRTSFDSDSWTLRLHNLQIKDKGRYQCIIHHKKPTGMINIHQMNSELSVLA
B5: bispecific molecule 1526/1585 (OX40 x CTLA-4) (bispecific antibody, human IgG1, kappa)
heavy: not shown
light: B4 light with G91Y, H92G, G93S, S94D, Y95S, P96L, H97L
B6: 1526/1527-1204/1205 (bispecific antibody, human IgG1, kappa)
heavy chain fused to scFv (VH1-Hc-linker-VH2/VL2): not shown
light chain (VL1-Lc): DIQMTQSPSSLSASVGDRVTITCRASQSISSYLNWYQQKPGKAPKLLIYAASSLQSGVPSRFSGSGSGTDFTLTISSLQPEDFATYYCQQYGSDSLLTFGQGTKLEIKRTVAAPSVFIFPPSDEQLKSGTASVVCLLNNFYPREAKVQWKVDNALQSGNSQESVTEQDSKDSTYSLSSTLTLSKADYEKHKVYACEVTHQGLSSPVTKSFNRGEC
notes: OX40 x CD137 bispecific antibody, scFv-IgG format

Key:
[1] = target: T2, CTLA4-Fc (Fitzgerald, #30R-CD152) (human, UniProt P16410 38-152); experiment: inhibition ELISA; the best IC50 of Table 1.2 is that of 1040
T2 construct: Bought; also called human CTLA-4 (Fitzgerald); biotinylated-CTLA4; not shown: Fc part of the bought fusion, not described
T2 sequence (P16410 38-152 limits assumed): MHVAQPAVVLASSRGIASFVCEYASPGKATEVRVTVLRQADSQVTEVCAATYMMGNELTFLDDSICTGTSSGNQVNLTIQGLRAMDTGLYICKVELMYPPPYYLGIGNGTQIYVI
Description: The sample (CD86 mutant or wild type protein; serially diluted ¼ from 30000 to 0.3 ng/ml) was incubated with biotinylated-CTLA4 (Fitzgerald, #30R-CD152) in room temperature 1 h, the mixture was then added to the blocked wells in the ELISA plate. Detection was performed with Streptavidin-HRP (Pierce, #21126) and the plates were subsequently developed using SuperSignal Pico Chemiluminescent substrate (Thermo Scientific, #37069) and detected with Envision reader (Perkin Elmer). […] Kd binding ratio=[Kd for CD28]÷[Kd for CTLA-4].

[2] = target: T2, CTLA4-Fc (Fitzgerald, #30R-CD152); experiment: SPR (Biacore), immobilised CTLA4-Fc
Description: Either CTLA4-Fc (Fitzgerald, #30R-CD152) or CD28-Fc (R&D Systems, 342-CD) was immobilized to the Biacore™ sensor chip, CM5, using conventional amine coupling. The CD86 mutant molecules and controls (serially diluted ½ 100-1.5 nM) were analyzed for binding in HBS-P (GE, BR-1003-68) at a flow rate of […]. The association was followed for 3 minutes and the dissociation for 10 minutes. Regeneration was performed twice using 5 mM NaOH for 30 seconds. The kinetic parameters and the affinity constants were calculated using BIAevaluation 4.1 software (Table 1.3).

[3] = target: T3, CD137 chimera 1554 (1411): human CD137 with mouse domains 3B, 4A and 4B (aa 97-159), on FreeStyle 293-F cells (human; mouse, UniProt P20334 96-159); experiment: flow cytometry, 293-F transfectants
T3 construct: domain: 3B, 4A and 4B
T3 sequence (P20334 other isoform, or with tags, fused parts or gaps mutant limits assumed): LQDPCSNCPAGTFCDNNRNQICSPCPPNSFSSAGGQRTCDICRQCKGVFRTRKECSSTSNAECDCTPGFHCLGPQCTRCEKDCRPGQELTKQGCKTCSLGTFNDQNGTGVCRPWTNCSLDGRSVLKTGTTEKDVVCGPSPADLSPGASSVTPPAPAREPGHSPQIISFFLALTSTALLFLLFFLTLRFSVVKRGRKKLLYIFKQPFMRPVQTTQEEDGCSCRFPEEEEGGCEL

[4] = target: T4, CD137 chimera 1555 (1412): human CD137 with mouse domains 1 and 4B and region of unknown function (aa 24-46 … (human; mouse, UniProt P20334 24-45; P20334 139-185); experiment: flow cytometry, 293-F transfectants
T4 construct: domain: 1;domain: 4B and region of unknown function
T4 sequence (P20334 other isoform, or with tags, fused parts or gaps mutant limits assumed): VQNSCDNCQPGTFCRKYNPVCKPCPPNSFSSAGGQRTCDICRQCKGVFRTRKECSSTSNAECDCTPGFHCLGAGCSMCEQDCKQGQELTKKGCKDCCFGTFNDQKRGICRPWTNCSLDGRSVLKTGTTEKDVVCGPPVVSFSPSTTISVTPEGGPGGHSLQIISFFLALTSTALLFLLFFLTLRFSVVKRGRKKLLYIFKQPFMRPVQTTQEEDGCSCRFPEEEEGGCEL

[5] = target: CD137 on primary human CD8+ T cells (human, UniProt Q07011 24-255); experiment: cell-based or functional assay
CD137 on primary human CD8+ T cells, sequence (Q07011 24-255 limits assumed): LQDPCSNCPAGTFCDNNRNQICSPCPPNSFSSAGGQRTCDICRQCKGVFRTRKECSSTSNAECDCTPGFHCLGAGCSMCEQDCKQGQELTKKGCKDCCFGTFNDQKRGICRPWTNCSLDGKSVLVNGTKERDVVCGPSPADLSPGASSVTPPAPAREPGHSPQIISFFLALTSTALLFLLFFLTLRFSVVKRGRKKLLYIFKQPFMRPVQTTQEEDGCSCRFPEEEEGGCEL

[6] = target: T1, Human OX40 (R&D systems, #3358_OX); experiment: ELISA, coated recombinant human OX40
Description: (§1) ELISA plates (Greiner #655074) were coated with 50 μl/well of recombinant human OX40 (R&D #1493-CD), CD40-Fc (Ancell #504-820) or CD137 (R&D #838-4B) diluted to a final concentration of 0.5 μg/ml in PBS for 1 h at 37° C. or overnight at 4° C. Plates were washed with PBS+0.05% TWEEN20 (PBST), followed by block with PBST+1% bovine serum albumin (BSA). Antibody samples were prepared as serial 1/10 dilutions from 10-0.01 μg/ml in PBST+1% BSA and incubated for 1h in room temperature, followed by detection using a horse radish peroxidase-conjugated anti-human kappa light chain antibody (AbD Serotec #STAR127P) and developed using SuperSignal ELISA Pico Chemiluminescent substrate (Pierce ThermoScientific #37069).

[7] = target: T5, CD40 (Ancell) (UniProt P25942 21-193); experiment: ELISA, coated CD40-Fc
T5 construct: also called CD40-Fc (Ancell #504-820); not shown: Fc part, not described
T5 sequence (P25942 21-193 limits assumed): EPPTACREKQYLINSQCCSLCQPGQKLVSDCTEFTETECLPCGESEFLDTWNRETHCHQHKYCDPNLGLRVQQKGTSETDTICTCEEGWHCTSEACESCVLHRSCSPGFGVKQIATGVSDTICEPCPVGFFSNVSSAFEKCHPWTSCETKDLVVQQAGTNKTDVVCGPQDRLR
Description: as §1

[8] = target: T6, CTLA-4 (BMS, Orencia) (human, UniProt P16410 38-152); experiment: cell-based or functional assay
T6 sequence (P16410 38-152 limits assumed): as the sequence (P16410 38-152 limits assumed) above

[9] = target: T6, CTLA-4 (BMS, Orencia); experiment: cell-based or functional assay; remark: listed apart in the source
[10] = target: T1, Human OX40 (R&D systems, #3358_OX); experiment: dual ELISA: OX40-Fc coated, bispecific antibody in dilutions, biotinylated CD137-Fc (1 ug/ml), HRP-streptavidin; the signal needs both bindings at once

| Binder | Max IFN-γ [5] | Mean IFN-γ [5] | Min IFN-γ [5] | binding result [6] | binding result [7] | Mean IL-2 level (pg/ml) induced at 1.5 nM [8] | further results |
| --- | --- | --- | --- | --- | --- | --- | --- |
| B1 |  |  |  |  |  |  | fold improvement of IC50 compared to wild type [1]: > 100 fold; Kd [2]: 3 nM; koff [2]: 0.0032 s⁻¹; kon [2]: 1e+06 M⁻¹ s⁻¹ |
| B2 | 153000 pg/mL | 64400 pg/mL | 13100 pg/mL | no binding (tested: 10 µg/ml) | no binding (tested: 10 µg/ml) |  | relative binding (MFI sample/isotype control, normalised to full-length human CD137) [3]: 0.73; relative binding (MFI sample/isotype control, normalised to full-length human CD137) [4]: 0.28 |
| B3 | 32200 pg/mL | 15100 pg/mL | 4160 pg/mL | no binding (tested: 10 µg/ml) | no binding (tested: 10 µg/ml) |  |  |
| B4 |  |  |  |  |  | 2580 pg/mL | Fold change in IL-2 level induced by bispecific molecule compared to the corresponding combination of the monospecific molecules at 1.5 nM [9]: 4.7 fold |
| B5 |  |  |  |  |  | 3200 pg/mL |  |
| B6 |  |  |  |  |  |  | binding result [10]: binds |
